# Laboratory results reported in PMC8262854.
# Like-named read-outs stand apart in the source and are kept apart here.
# Legend:
# [1] = target: Du172.17 gp140.664.R4 Env trimer (HIV-1 Du172.17 (clade C)); assay: crystal structure
substance,measurement,setting,value
BG505.T332N Env (pseudovirus glycan hole mutant P291T): P291T (glycan site added at N289),other,N-glycosylation at N289,decreases
BG505.T332N Env (pseudovirus glycan hole mutant S241N): S241N (glycan site added),other,N-glycosylation at N241,decreases
BG505.T332N Env (pseudovirus glycan hole mutant T465N): T465N (glycan site added),other,N-glycosylation at N465,decreases
Du172.17 gp140.664.R4 Env trimer (complex),stoichiometry N,[1],3
